Our source for the Kd values is publication PMC3664666 (Science signaling, 2012).

This experiment deals with T1, phosphorylated Mt-MviN KHD 681-963 (M. tuberculosis, UniProt P9WJK2 681-963, phosphothreonine at 947).
T1 sequence: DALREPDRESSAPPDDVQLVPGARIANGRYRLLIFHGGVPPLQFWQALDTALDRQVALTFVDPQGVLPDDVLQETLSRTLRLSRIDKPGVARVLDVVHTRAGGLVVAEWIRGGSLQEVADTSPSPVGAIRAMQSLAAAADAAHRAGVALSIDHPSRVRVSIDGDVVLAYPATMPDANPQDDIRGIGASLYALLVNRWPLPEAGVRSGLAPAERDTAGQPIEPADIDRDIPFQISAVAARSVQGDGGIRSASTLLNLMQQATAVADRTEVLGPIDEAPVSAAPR
Description: ITC.

B1: FhaA FHA domain (residues 390 to 525) (domain or fragment)
chain: PQGGGYAEPAGRDYDYGQSGAPDYGQPAPGGYSGYGQGGYGSAGTSVTLQLDDGSGRTYQLREGSNIIGRGQDAQFRLPDTGVSRRHLEIRWDGQVALLADLNSTNGTTVNNAPVQEWQLADGDVIRLGHSEIIVR
With B1, the dissociation constant (Kd) turned out to be 0.058 ± 0.002 µM.
